The record followed here is IntAct's records for PubMed 18171471.

The target in this assay is fak1_chick PTK2 (UniProt Q00944).
Chain of fak1_chick PTK2 (Q00944 whole entry): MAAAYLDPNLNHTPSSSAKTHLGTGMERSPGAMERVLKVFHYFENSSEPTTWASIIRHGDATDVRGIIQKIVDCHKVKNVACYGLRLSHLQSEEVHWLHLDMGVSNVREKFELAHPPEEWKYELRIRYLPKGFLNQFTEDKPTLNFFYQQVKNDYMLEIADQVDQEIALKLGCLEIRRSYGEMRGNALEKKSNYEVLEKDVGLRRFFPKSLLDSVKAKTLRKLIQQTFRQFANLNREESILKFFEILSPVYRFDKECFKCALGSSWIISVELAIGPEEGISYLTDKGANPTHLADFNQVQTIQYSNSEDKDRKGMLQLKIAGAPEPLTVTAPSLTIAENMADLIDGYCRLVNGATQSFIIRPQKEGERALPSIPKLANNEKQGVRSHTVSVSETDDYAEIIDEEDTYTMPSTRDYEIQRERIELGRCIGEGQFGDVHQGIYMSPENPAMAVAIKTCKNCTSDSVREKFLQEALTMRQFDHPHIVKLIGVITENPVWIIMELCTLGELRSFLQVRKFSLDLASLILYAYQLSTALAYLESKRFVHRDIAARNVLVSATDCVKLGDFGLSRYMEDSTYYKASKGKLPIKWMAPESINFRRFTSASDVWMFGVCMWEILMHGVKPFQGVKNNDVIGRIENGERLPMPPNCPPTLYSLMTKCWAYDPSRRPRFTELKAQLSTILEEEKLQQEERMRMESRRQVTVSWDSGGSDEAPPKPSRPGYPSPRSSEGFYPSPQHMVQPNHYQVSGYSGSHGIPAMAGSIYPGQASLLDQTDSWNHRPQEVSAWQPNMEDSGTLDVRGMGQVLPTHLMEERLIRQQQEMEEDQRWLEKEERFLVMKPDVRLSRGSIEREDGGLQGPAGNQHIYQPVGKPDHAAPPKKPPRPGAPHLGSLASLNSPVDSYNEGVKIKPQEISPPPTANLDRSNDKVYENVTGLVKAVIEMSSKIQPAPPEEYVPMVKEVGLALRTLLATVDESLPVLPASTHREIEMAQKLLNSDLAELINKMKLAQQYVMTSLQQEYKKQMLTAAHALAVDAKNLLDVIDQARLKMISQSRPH

Chain of Paxillin (Gallus gallus (Chicken)), P49024 D146A (P49024 whole entry D146A): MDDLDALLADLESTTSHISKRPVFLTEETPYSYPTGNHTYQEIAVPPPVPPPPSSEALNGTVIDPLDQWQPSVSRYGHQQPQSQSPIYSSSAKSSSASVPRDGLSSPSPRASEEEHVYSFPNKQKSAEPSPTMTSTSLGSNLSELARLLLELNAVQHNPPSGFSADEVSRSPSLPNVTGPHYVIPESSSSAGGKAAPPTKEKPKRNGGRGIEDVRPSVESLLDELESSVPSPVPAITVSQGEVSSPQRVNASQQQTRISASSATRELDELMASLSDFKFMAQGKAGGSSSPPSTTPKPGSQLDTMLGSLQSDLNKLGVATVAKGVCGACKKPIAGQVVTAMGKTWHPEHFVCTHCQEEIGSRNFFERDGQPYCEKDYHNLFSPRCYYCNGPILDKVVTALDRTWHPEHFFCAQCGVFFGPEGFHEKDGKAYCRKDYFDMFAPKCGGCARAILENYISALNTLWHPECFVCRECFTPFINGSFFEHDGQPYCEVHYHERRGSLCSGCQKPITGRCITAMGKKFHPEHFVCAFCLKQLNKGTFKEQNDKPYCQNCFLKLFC
Chain of Paxillin (Gallus gallus (Chicken)), P49024 D146A;D268A (P49024 whole entry D146A/D268A): as the sequence (P49024 whole entry D146A) above, with D268A counted along it

Consider “Paxillin (Gallus gallus (Chicken)), P49024 D146A”, for which the “effect of a mutation on the interaction” value is listed as “decreasing interaction”.

In the case of “Paxillin (Gallus gallus (Chicken)), P49024 D146A;D268A”, the “effect of a mutation on the interaction” value is recorded as “disrupting interaction”.
